Patent publication US10246503B2, “Method of improving the pharmacokinetic profile of a therapeutic polypeptide and the use thereof” (BEIJING ANXINHUAIDE BIOTECH. CO., LTD, priority 2012, dated 2019)

Columns and labels:
[1] = target: human GLP-1 receptor (GLP-1R) (human, UniProt P43220 24-463); test: cell-based or functional assay
[2] = pharmacokinetics in SD rats, sandwich ELISA (Example 15); format: in vivo, SD (Sprague-Dawley) rats; details: intraperitoneal, 5 nmol/kg
Method: To evaluate the pharmacokinetics profiles for the GLP-1 containing fusion proteins generated using the method of the invention, we purified the recombinant fusion proteins of GLP-1-Fn8-COL18NC1, GLP1(A8G/G22E/R36G)-Fn8-p246-COL18NC1 and GLP1(A8G/G22E/R36G)-Fn8-p285-COL18NC1 in PBS buffer, pH 7.2. These fusion proteins were administered into SD (Sprague-Dawley) rats by intraperitoneal injections at the dose of 5 nmol/kg for animals, respectively. Blood samples were taken at various time points after injections such as 0-min, 30-min, 1-hour, 2-hour, 4-hour, 6-hour, 8-hour, 24-hour, 48-hour, 3-day, 4-day, 5-day, 6-day and 7-day. The serum samples were centrifuged and kept at −80° C. freezer.
The GLP-1 concentrations within the samples were examined by use of the sandwich ELISA method. The rabbit polyclonal antibody against human Fibronectin at the concentration of 3 ug/ml (Ab299, Abcam company) was coated on ELISA plate for 1 hour at room temperature. Then the plate was washed by PBST buffer three times and the wells were blocked by PBS with 10% FBS for 1 hour at room temperature. The plate was washed three times before the serum samples containing GLP-1 fusion proteins were added. The serum samples could be diluted to 20-10000 folds before use. The ELISA plate was incubated with the serum samples at room temperature for 1 hour and then washed by PBST buffer five times. Then mouse monoclonal against human GLP-1 peptide antibody (sc57510, Santa Cruz Biotechnology) at the concentration of 1 ug/ml in PBST buffer was added to the wells. The plate was washed extensively after incubation of 1 hour at room temperature. The secondary antibody, […] HRP conjugated antibody (Beijing ZSGB-Bio company, ZB 5301), was added into the wells and the color was developed using TMB (3,3′,5,5′-tetramethylbenzidine, BD Biosciences, Cat 555214). The plate reader (Bio-Rad microplate reader Model 680) was utilized to obtain the OD450 readings. This method has been calibrated using purified proteins first.
The pharmacokinetics parameters were obtained by using the WinNonlin software (Table 5).

EC50 (nM) measured by cAMP assay [1] [nM] | Molecule | further results
0.4 | GLP-1(A8G/G22E/R36G)-Fn8-p271-COL18NC1 (ligand) HGEGTFTSDVSSYLEEQAAKEFIAWLVKGGGSGGGSGGGSGGGSGGGSGSGGAVPPPTDLRFTNIGPDTMRVTWAPPPSIDLTNFLVRYSPVKNEEDVAELSISPSDNAVVLTNLLPGTEYVVSVSSVYEQHESTPLRGRQKTGGGGSGGGSGGSGSESGSGGGSTSSGTGSETESPGGSGSESGSGGPSSAGSGGSGSESGSGGSGSSGPGSTGGGSGSESGSGGPGSSGTGGTATGGSGSESGSGGPGSSGPGSTGSGGSGSESGSGGSGSSGTGSTGGGSGSESGSGGPGSPRPGSTGTGGSGSESGSGGPGSSERGSAGGGSGSESGSGGTSESSASGSTGGGSGSESGSGGSESGSGGSGSESGSGGPESPGSGGGSGSESGSGGTSGSTGGSGSESGSGGGGSGGGSGGGASSGVRLWATRQAMLGQVHEVPEGWLIFVAEQEELYVRVQNGFRKVQLEARTPLPRG | 
0.5 | GLP-1(A8G/G22E/R36G)-Fn8-p245-COL18NC1 (ligand) HGEGTFTSDVSSYLEEQAAKEFIAWLVKGGGSGGGSGGGSGGGSGGGSGSGGAVPPPTDLRFTNIGPDTMRVTWAPPPSIDLTNFLVRYSPVKNEEDVAELSISPSDNAVVLTNLLPGTEYVVSVSSVYEQHESTPLRGRQKTGGGGSGGGSGSGSTSESGGSTSSGTGSETESPGSGSESTSGPSSAGSGSTSESGSGSGSSGPGSTGGSTSGSESGPGSSGTGGTATGSESGSTSGPGSSGPGSTGSGSTSESGSGSGSSGTGSTGGSESGSTSGPGSPRPGSTGTGSTSGSESGPGSSERGSAGGSESTSGSGTSESSASGSTGGSTSGSESGSESGSGSTSESGSGPESPGSGGSGSTSESGTSGSTGSESTSGSGGGSGGGSGGGASSGVRLWATRQAMLGQVHEVPEGWLIFVAEQEELYVRVQNGFRKVQLEARTPLPRG | 
0.6 | GLP1(A8G/G22E/R36G)-Fn8-p246-ACRP30 (ligand) HGEGTFTSDVSSYLEEQAAKEFIAWLVKGGGSGGGSGGGSGGGSGGGSGSGGAVPPPTDLRFTNIGPDTMRVTWAPPPSIDLTNFLVRYSPVKNEEDVAELSISPSDNAVVLTNLLPGTEYVVSVSSVYEQHESTPLRGRQKTGGGGSGGGSGSGSESGSGGGSTSSGTGSETESPGSGSESGSGPSSAGSGSGSESGSGSGSSGPGSTGGSGSESGSGPGSSGTGGTATGSGSESGSGPGSSGPGSTGSGSGSESGSGSGSSGTGSTGGSGSESGSGPGSPRPGSTGTGSGSESGSGPGSSERGSAGGSGSESGSGTSESSASGSTGGSGSESGSGSESGSGSGSESGSGPESPGSGGSGSESGSGTSGSTGSGSESGSGGGSGGGSGGVYRSAFSVGLETRVTVPNVPIRFTKIFYNQQNHYDGSTGKFYCNIPGLYYFSYHITVYMKDVKVSLFKKDKAVLFTYDQYQEKNVDQASGSVLLHLEVGDQVWLQVYGDGDHNGLYADNVNDSTFTGFLLYHDTN | 
2.1 | GLP-1-Fn8-COL18NC1 (ligand) HAEGTFTSDVSSYLEGQAAKEFIAWLVKGRGGGGSGGGGSAVPPPTDLRFTNIGPDTMRVTWAPPPSIDLTNFLVRYSPVKNEEDVAELSISPSDNAVVLTNLLPGTEYVVSVSSVYEQHESTPLRGRQKTGGGGSGGGASSGVRLWATRQAMLGQVHEVPEGWLIFVAEQEELYVRVQNGFRKVQLEARTPLPRG | 
1.2 | GLP-1(A8G/G22E/R36G)-Fn8-COL18NC1 (ligand) HGEGTFTSDVSSYLEEQAAKEFIAWLVKGGGGGGSGGGGSAVPPPTDLRFTNIGPDTMRVTWAPPPSIDLTNFLVRYSPVKNEEDVAELSISPSDNAVVLTNLLPGTEYVVSVSSVYEQHESTPLRGRQKTGGGGSGGGASSGVRLWATRQAMLGQVHEVPEGWLIFVAEQEELYVRVQNGFRKVQLEARTPLPRG | 
1.3 | GLP-1(A8V/G22E)-Fn8-COL18NC1 (ligand) HVEGTFTSDVSSYLEEQAAKEFIAWLVKGRGGGGSGGGGSAVPPPTDLRFTNIGPDTMRVTWAPPPSIDLTNFLVRYSPVKNEEDVAELSISPSDNAVVLTNLLPGTEYVVSVSSVYEQHESTPLRGRQKTGGGGSGGGASSGVRLWATRQAMLGQVHEVPEGWLIFVAEQEELYVRVQNGFRKVQLEARTPLPRG | 
1.3 | GLP-1(A8G/G22E)-Fn8-COL18NC1 (ligand) HGEGTFTSDVSSYLEEQAAKEFIAWLVKGRGGGGSGGGGSAVPPPTDLRFTNIGPDTMRVTWAPPPSIDLTNFLVRYSPVKNEEDVAELSISPSDNAVVLTNLLPGTEYVVSVSSVYEQHESTPLRGRQKTGGGGSGGGASSGVRLWATRQAMLGQVHEVPEGWLIFVAEQEELYVRVQNGFRKVQLEARTPLPRG | 
1.3 | GLP-1(A8S/G22E)-Fn8-COL18NC1 (ligand) HSEGTFTSDVSSYLEEQAAKEFIAWLVKGRGGGGSGGGGSAVPPPTDLRFTNIGPDTMRVTWAPPPSIDLTNFLVRYSPVKNEEDVAELSISPSDNAVVLTNLLPGTEYVVSVSSVYEQHESTPLRGRQKTGGGGSGGGASSGVRLWATRQAMLGQVHEVPEGWLIFVAEQEELYVRVQNGFRKVQLEARTPLPRG | 
0.6 | GLP-1(A8G/G22E/R36G)-Fn8-p246-COL19NC2 (ligand) HGEGTFTSDVSSYLEEQAAKEFIAWLVKGGGSGGGSGGGSGGGSGGGSGSGGAVPPPTDLRFTNIGPDTMRVTWAPPPSIDLTNFLVRYSPVKNEEDVAELSISPSDNAVVLTNLLPGTEYVVSVSSVYEQHESTPLRGRQKTGGGGSGGGSGSGSESGSGGGSTSSGTGSETESPGSGSESGSGPSSAGSGSGSESGSGSGSSGPGSTGGSGSESGSGPGSSGTGGTATGSGSESGSGPGSSGPGSTGSGSGSESGSGSGSSGTGSTGGSGSESGSGPGSPRPGSTGTGSGSESGSGPGSSERGSAGGSGSESGSGTSESSASGSTGGSGSESGSGSESGSGSGSESGSGPESPGSGGSGSESGSGTSGSTGSGSESGSGGGSGGGSGGGIPADAVSFEEIKKYINQEVLRIFEERMAVFLSQLKLPAAMLAAQAYGRP | 
0.4 | GLP-1(A8G/G22E/R36G)-Fn8-p285-COL18NC1 (ligand) HGEGTFTSDVSSYLEEQAAKEFIAWLVKGGGSGGGSGGGSGGGSGGGSGSGGAVPPPTDLRFTNIGPDTMRVTWAPPPSIDLTNFLVRYSPVKNEEDVAELSISPSDNAVVLTNLLPGTEYVVSVSSVYEQHESTPLRGRQKTGGGGSGGGSGSGSESGSGGGSTSSGTGSETESPGSGSESGSGPSSAGSGSGSESGSGSGSSGPGSTGGSGSESGSGPGSSGTGGTATGSGSESGSGPGSSGPGSTGSGSGSESGSGSGSSGTGSTGGSGSESGSGPGSPRPGSTGTGSGSESGSGPGSSERGSAGGSGSESGSGTSESSASGSTGGSGSESGSGSESGSGSGSESGSGPESPGSGGSGSESGSGTSGSTGSGSESGSGPGSSGPGSTGSGSGSESGSGSGSSGTGSTGGSGSESGSGGGSGGGSGGGASSGVRLWATRQAMLGQVHEVPEGWLIFVAEQEELYVRVQNGFRKVQLEARTPLPRG | 
 | GLP1(A8G/G22E/R36G)-Fn8-p285-COL18NC1: fusion with Fn8, pCloud p285 and COL18NC1; SEQ ID NO: 23 (protein) HGEGTFTSDVSSYLEEQAAKEFIAWLVKGGGSGGGSGGGSGGGSGGGSGSGGAVPPPTDLRFTNIGPDTMRVTWAPPPSIDLTNFLVRYSPVKNEEDVAELSISPSDNAVVLTNLLPGTEYVVSVSSVYEQHESTPLRGRQKTGGGGSGGGSGSGSESGSGGGSTSSGTGSETESPGSGSESGSGPSSAGSGSGSESGSGSGSSGPGSTGGSGSESGSGPGSSGTGGTATGSGSESGSGPGSSGPGSTGSGSGSESGSGSGSSGTGSTGGSGSESGSGPGSPRPGSTGTGSGSESGSGPGSSERGSAGGSGSESGSGTSESSASGSTGGSGSESGSGSESGSGSGSESGSGPESPGSGGSGSESGSGTSGSTGSGSESGSGPGSSGPGSTGSGSGSESGSGSGSSGTGSTGGSGSESGSGGGSGGGSGGGASSGVRLWATRQAMLGQVHEVPEGWLIFVAEQEELYVRVQNGFRKVQLEARTPLPRG | AUCall ([2]; Rats): 475.3 µg·h/mL; CL/F ([2]; Rats): 1.37 mL/h/kg; Cmax ([2]; Rats): 7980 ng/mL; T½ ([2]; Rats): 31.2 h; Vss ([2]; Rats): 0.062 L/kg; half life ([2]; SD rats): 31.2 h
